Data published in publication PMC6365055, “High resolution cryo-EM structure of the helical RNA-bound Hantaan virus nucleocapsid reveals its assembly mechanisms” (eLife, 2019).

B1: NP_(74-429) construct obtained by trypsin limited proteolysis of HTNV-NC (domain or fragment)
chain: NLGKEQDPTGVEPGDHLKERSMLSYGNVLDLNHLDIDEPTGQTADWLSIIVYLTSFVVPILLKALYMLTTRGRQTTKDNKGTRIRFKDDSSFEDVNGIRKPKHLYVSLPNAQSSMKAEEITPGRYRTAVCGLYPAQIKARQMISPVMSVIGFLALAKDWSDRIEQWLIEPCKLLPDTAAVSLLGGPATNRDYLRQRQVALGNMETKESKAIRQHAEAAGCSMIEDIESPSSIWVFAGAPDRCPPTCLFIAGIAELGAFFSILQDMRNTIMASKTVGTSEEKLRKKSSFYQSYLRRTQSMGIQLGQRIIVLFMVAWGKEAVDNFHLGDDMDPELRTLAQSLIDVKVKEISNQEPLKL
notes: also called truncated construct NP_(74-429)
B2: Hantaan virus nucleoprotein, recombinant full-length (natural protein)
chain: MATMEELQREINAHEGQLVIARQKVRDAEKQYEKDPDELNKRTLTDREGVAVSIQAKIDELKRQLADRIATGKNLGKEQDPTGVEPGDHLKERSMLSYGNVLDLNHLDIDEPTGQTADWLSIIVYLTSFVVPILLKALYMLTTRGRQTTKDNKGTRIRFKDDSSFEDVNGIRKPKHLYVSLPNAQSSMKAEEITPGRYRTAVCGLYPAQIKARQMISPVMSVIGFLALAKDWSDRIEQWLIEPCKLLPDTAAVSLLGGPATNRDYLRQRQVALGNMETKESKAIRQHAEAAGCSMIEDIESPSSIWVFAGAPDRCPPTCLFIAGIAELGAFFSILQDMRNTIMASKTVGTSEEKLRKKSSFYQSYLRRTQSMGIQLGQRIIVLFMVAWGKEAVDNFHLGDDMDPELRTLAQSLIDVKVKEISNQEPLKL
notes: also called HTNV-NP; NP

What was measured:
[1] = molecular target: the molecule itself; test: negative stain EM
[2] = molecular target: the molecule itself; test: cryo-EM structure

Protein | binding result [1] | binding result [2]
B1 | binds | –
B2 | – | binds
